Assay results: US20070166308A1 (Amgen, published 2007)

T1: VCAM (Panvera) (UniProt P19320 25-698, limits assumed)
T1 sequence (looked up): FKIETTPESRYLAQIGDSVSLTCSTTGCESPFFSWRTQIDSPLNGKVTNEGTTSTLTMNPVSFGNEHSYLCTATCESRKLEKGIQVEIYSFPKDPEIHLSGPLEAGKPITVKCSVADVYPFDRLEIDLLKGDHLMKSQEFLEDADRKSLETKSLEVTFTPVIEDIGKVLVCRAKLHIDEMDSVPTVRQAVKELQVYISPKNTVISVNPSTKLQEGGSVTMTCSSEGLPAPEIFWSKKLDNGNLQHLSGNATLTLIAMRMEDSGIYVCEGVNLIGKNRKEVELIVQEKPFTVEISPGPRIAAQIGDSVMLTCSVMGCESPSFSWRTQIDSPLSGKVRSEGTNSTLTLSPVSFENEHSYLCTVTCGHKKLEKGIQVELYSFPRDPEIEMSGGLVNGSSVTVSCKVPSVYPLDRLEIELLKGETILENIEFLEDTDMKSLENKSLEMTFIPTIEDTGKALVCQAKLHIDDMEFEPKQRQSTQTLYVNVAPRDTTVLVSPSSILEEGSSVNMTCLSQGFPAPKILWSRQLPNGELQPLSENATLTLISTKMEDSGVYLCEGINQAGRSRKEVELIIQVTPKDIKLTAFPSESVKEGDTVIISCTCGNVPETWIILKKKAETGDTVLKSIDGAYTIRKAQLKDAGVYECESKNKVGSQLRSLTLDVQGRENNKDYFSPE

B1: anti-MAdCAM monoclonal antibody 6.73.2 (antibody, human IgG4, kappa, V domains shown)
VH: EVQLLESGGDLVQPGGSLRLSCAASGFTFRSYAMNWVRQAPGKGLEWVSVISGRGGTTYYADSVKGRFTISRDNSKNTLYLQMNSLRAEDAAVYYCAKIAVAGEGLYYYYGMDVWGQGTTVTVSS
VL: DIQMTQSPSSLSASVGDRVTFTCRASQNITNYLNWYQQKPGKAPKLLIYAASSLPRGVPSRFRGSGSGTDFTLTISSLQPEDFATYYCQQSYSNPPECGFGQGTTLDIKR
B2: anti-MAdCAM monoclonal antibody 1.7.2 (antibody, human IgG2, kappa, V domains shown)
VH: EVQLVESGGGLVKPGGSLRLSCVASGFTFTNAWMIWVRQAPGKGLEWVGRIKRKTDGGTTDYAAPVKGRFTISRDDSKNTLYLQMNSLKTEDTAVYYCTTGGVAEDYWGQGTLVTVSS
VL: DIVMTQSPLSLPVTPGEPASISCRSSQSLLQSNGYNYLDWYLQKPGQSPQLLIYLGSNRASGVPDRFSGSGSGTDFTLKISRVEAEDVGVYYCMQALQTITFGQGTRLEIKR
B3: anti-MAdCAM monoclonal antibody 1.8.2 (antibody, human IgG2, kappa, V domains shown)
VH: EVQLVESGGGLVKPGGSLRLSCVVSGFTFTNAWMIWVRQAPGKGLEWVGRIKRKTDGGTTDYAAPVKGRFTISRDDSKNTLYLQMNSLKTEDTAVYYCTTGGVAEDYWGQGTLVTVSS
VL: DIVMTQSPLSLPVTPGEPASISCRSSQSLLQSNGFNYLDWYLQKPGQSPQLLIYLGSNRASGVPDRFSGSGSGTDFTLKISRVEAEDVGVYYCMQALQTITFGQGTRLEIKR
B4: anti-MAdCAM monoclonal antibody 6.22.2 (antibody, human IgG4, kappa, V domains shown)
VH: QVQLVESGGGVVQPGRSLRLSCAASGHTFSSDGMHWVRQAPGKGLEWVAIIWYDGSNKYYADSVKGRFTISRDNSKNTLYLQMNSLRAEDTAVYYCARDPGYYYGMDVWGQGTTVTVSS
VL: EIVLTQSPDFQSVTPKEKVTITCRASQRIGSSLHWYQQKPDQSPKLLIKYASQSFSGVPSRFSGSGSGTNFTLTINGLEAEDAATYYCHQSGRLPLTFGGGTKVEIKR
notes: fully human IgG4 kappa from hybridoma; signal peptide left out; kappa chain stained positive for glycosylation
B5: modified anti-MAdCAM monoclonal antibody 6.22.2-mod (antibody, human IgG2, kappa, V domains shown)
VH: QVQLVESGGGVVQPGRSLRLSCAASGFTFSSDGMHWVRQAPGKGLEWVAIIWYDGSNKYYADSVKGRFTISRDNSKNTLYLQMNSLRAEDTAVYYCARDPGYYYGMDVWGQGTTVTVSS
VL: EIVLTQSPDFQSVTPKEKVTITCRASQRIGSSLHWYQQKPDQSPKLLIKYASQSFSGVPSRFSGSGSGTDFTLTINSLEAEDAATYYCHQSGRLPLTFGGGTKVEIKR
notes: human IgG2 kappa, made in HEK 293T cells; signal peptide left out
B6: anti-MAdCAM monoclonal antibody 6.34.2 (antibody, human IgG4, kappa, V domains shown)
VH: QVQLVESGGGVVQPGRSLRLSCAASGFTFSSYGMHWVRQAPGKGLEWVAVISNDGNNKYYADSVKGRFTISRDNSKNTLYLQMNSLSAEDTAVYYCARDSTAITYYYYGMDVWGQGTTVTVSS
VL: DIQMTQSPSSLSASVGDRVTITCRASQNISSYLNWFQQKPGKAPKLLIYAASGLKRGVPSRFSGSGSGTDFTLTIRTLQPDDFATYSCHQSYSLPFTFGPGTKVDIKR
notes: as for B4
B7: modified anti-MAdCAM monoclonal antibody 6.34.2-mod (antibody, human IgG2, kappa, V domains shown)
VH: QVQLVESGGGVVQPGRSLRLSCAASGFTFSSYGMHWVRQAPGKGLEWVAVISNDGNNKYYADSVKGRFTISRDNSKNTLYLQMNSLRAEDTAVYYCARDSTAITYYYYGMDVWGQGTTVTVSS
VL: DIQMTQSPSSLSASVGDRVTITCRASQSISSYLNWYQQKPGKAPKLLIYAASGLKRGVPSRFSGSGSGTDFTLTISSLQPEDFATYYCHQSYSLPFTFGPGTKVDIKR
notes: as for B5
B8: modified anti-MAdCAM monoclonal antibody 7.26.4-mod (antibody, human IgG2, kappa, V domains shown)
VH: QVQLVQSGAEVKKPGASVKVSCEASGYTFTSYGIDWVRQAPGQGLEWMGWISVYSGNTNYAQKLQGRVTMSTDTSTSTAYMELRSLRSDDTAVYYCAREGSSSSGDYYYGMDVWGQGTTVTVSS
VL: DIVMTQTPLSLSVTPGQPASISCKSSQSLLYSDGKTYLFWYLQKPGQPPQLLIYEVSNRFSGVPDRFSGSGSGTDFTLKISRVEAEDVGVYYCMQSIQLPWTFGQGTKVEIKR
notes: human IgG2 kappa, parental heavy chain with modified kappa chain, made in HEK 293T cells; signal peptide left out
B9: anti-MAdCAM monoclonal antibody 6.77.1 (antibody, human IgG4, kappa, V domains shown)
VH: EVQLVESGGGLVKPGGSLRLSCAASGFTFSSYSMNWVRQAPGKGLEWVSSISSSSSYIYYADSVKGRFTISRDNAKNSLYLQMNSLRAEDTAVYYCARDGYSSGWSYYYYYGMDVWGQGTTVTVSS
VL: DIVMTQTPLSLSVTPGQPASISCNSSQSLLLSDGKTYLNWYLQKPGQPPQLLIYEVSNRFSGVPDRFSGSGSGTDFTLKISRVEAEDVGVYSCMQSIQLMCSFGQGTKLEIKR
notes: as for B4
B10: modified anti-MAdCAM monoclonal antibody 6.77.1-mod (antibody, human IgG2, kappa, V domains shown)
VH: EVQLVESGGGLVKPGGSLRLSCAASGFTFSSYSMNWVRQAPGKGLEWVSSISSSSSYIYYADSVKGRFTISRDNAKNSLYLQMNSLRAEDTAVYYCARDGYSSGWSYYYYYGMDVWGQGTTVTVSS
VL: DIVMTQTPLSLSVTPGQPASISCKSSQSLLLSDGKTYLNWYLQKPGQPPQLLIYEVSNRFSGVPDRFSGSGSGTDFTLKISRVEAEDVGVYSCMQSIQLMSSFGQGTKLEIKR
notes: as for B5
B11: anti-MAdCAM monoclonal antibody 7.16.6 (antibody, human IgG2, kappa, V domains shown)
VH: QVQLVQSGAEVKKPGASVKVSCKASGYTFTSYGINWVRQAPGQGLEWMGWISVYSGNTNYAQKVQGRVTMTADTSTSTAYMDLRSLRSDDTAVYYCAREGSSSSGDYYYGMDVWGQGTTVTVSS
VL: DIVMTQTPLSLSVTPGQPASISCKSSQSLLHTDGTTYLYWYLQKPGQPPQLLIYEVSNRFSGVPDRFSGSGSGTDFTLKISRVEAEDVGIYYCMQNIQLPWTFGQGTKVEIKR
B12: anti-MAdCAM monoclonal antibody 6.67.1 (antibody, human IgG4, kappa, V domains shown)
VH: QVQLQESGPGLVKPSETLSLTCTVSGDSISSNYWSWIRQPAGKGLEWIGRIYTSGGTNSNPSLRGRVTILADTSKNQFSLKLSSVTAADTAVYYCARDRITIIRGLIPSFFDYWGQGTLVTVSS
VL: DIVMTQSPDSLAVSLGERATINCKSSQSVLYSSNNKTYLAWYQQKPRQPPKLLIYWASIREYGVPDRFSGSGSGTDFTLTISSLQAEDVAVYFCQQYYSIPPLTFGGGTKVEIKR
notes: as for B4
B13: modified anti-MAdCAM monoclonal antibody 6.67.1-mod (antibody, human IgG2, kappa, V domains shown)
VH: QVQLQESGPGLVKPSETLSLTCTVSGDSISSNYWSWIRQPAGKGLEWIGRIYTSGGTNSNPSLRGRVTMSVDTSKNQFSLKLSSVTAADTAVYYCARDRITIIRGLIPSFFDYWGQGTLVTVSS
VL: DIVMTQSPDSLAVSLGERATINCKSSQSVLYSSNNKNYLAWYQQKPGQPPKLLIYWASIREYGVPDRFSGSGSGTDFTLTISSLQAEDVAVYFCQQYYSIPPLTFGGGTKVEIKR
notes: as for B5
B14: anti-MAdCAM monoclonal antibody 7.20.5 (antibody, human IgG2, kappa, V domains shown)
VH: QVQLQESGPGLVKPSETLSLTCTVSGSSISSYHWNWIRQPAGKGLEWIGRIYTSGSTNYNPSLKSRVTMSLDTSKNQFSLKLSSVTAADTAVYYCAREGVRYYYASGSYYYGLDVWGQGTTVTVSS
VL: not shown
notes: fully human IgG2 kappa from hybridoma; signal peptide left out
B15: anti-MAdCAM monoclonal antibody 6.14.2 (antibody, human IgG4, kappa, V domains shown)
VH: EVQLLESGGGLVQPGGSLRLSCAASGLTFNNSAMTWVRQAPGKGLEWVSTTSGSGGTTYYADSVKGRFTISRDSPKNTLYLQMNSLRAEDTAVYYCAARGYSYGTTPYEYWGQGTLVTVSS
VL: DIQMTQSPSSLSASVGDRVTITCRASRSISSYLNWYQQKPGKAPKVLIFFVSSLQSGVPSRFSGSGSGTDFTLTISSLQPEDFATYYCQQNYIPPITFGQGTRLEIRR

Tests used:
VCAM (Panvera) = target: T1, VCAM (Panvera); assay: cell-based or functional assay
[1] = target: Fibronectin cell binding fragment (110 Kd, Europa Bioproducts Ltd, Cat. No. UBF4215-18) (UniProt P02751-1 722-1635); assay: cell-based or functional assay
[2] = target: T2, MAdCAM-IgG1 Fc fusion protein (human); assay: MAdCAM-IgG1 Fc fusion / JY cell adhesion assay, mean IC50
T2 construct: Expressed in CHO-DHFR cells; also called MAdCAM-IgFc; soluble MAdCAM (in the sandwich ELISA)
Method: (§1) The cells were washed twice with RPMI 1640 media (Gibco) containing 2 mM L-glutamine (Gibco) by centrifugation (240 g), resuspending the final cell pellet at 2×10⁶ cells/mL in RPMI 1640 for Calcein AM loading. Calcein AM (Molecular Probes #C-3099) was added to the cells as a 1:200 dilution in DMSO (ca. final concentration 5 μM) and the cells protected from light during the course of the incubation (37° C. for 30 min). During this cell incubation step the antibodies to be tested, were diluted as follows: for single dose testing, the antibodies were made up to 3 μg/mL (1 μg/mL final) in 0.1 mg/mL BSA (Sigma#A3059) in PBS; for full IC₅₀ curves, the antibodies were diluted in 0.1 mg/mL BSA/PBS, with 3 μg/mL (1 μg/mL final) being the top concentration, then doubling dilutions (1:2 ratio) across the plate. The final well of the row was used for determining total binding, so 0.1 mg/ml BSA in PBS was used.
(§2) After blocking, the plate contents were flicked out and 50 μL of antibodies/controls were added to each well and the plate incubated at 37° C. for 20 min. During this time, Calcein-loaded JY cells were washed once with RPMI 1640 media containing 10% fetal bovine serum and once with 1 mg/mL BSA/PBS by centrifugation, resuspending the final cell pellet to 1×10⁶/mL in 1 mg/mL BSA/PBS. 100 μL of cells were added to each well of the U bottomed plate, the plate sealed, briefly centrifuged (1000 rpm for 2 min) and the plate then incubated at 37° C. for 45 min. At the end of this time, the plates were washed with a Skatron plate washer and fluorescence measured using a Wallac Victor² 1420 Multilabel Reader (excitation λ 485 nm, emission λ 535 nm count from top, 8 mm from bottom of plate, for 0.1 sec with normal emission aperture). For each antibody concentration, percent adhesion was expressed as a percentage of maximal fluorescence response in the absence of any antibody minus fluorescence associated with non-specific binding. The IC₅₀ value is defined as the anti-MAdCAM antibody concentration at which the adhesion response is decreased to 50% of the response in the absence of anti-MAdCAM antibody.

[3] = target: T2, MAdCAM-IgG1 Fc fusion protein; assay: adhesion of calcein-loaded α4β7+ JY cells to coated MAdCAM-IgG1 Fc, blocked by antibody
Method: as §1
as §2, with “The IC₅₀ value is defined as the anti-MAdCAM antibody concentration at which the adhesion response is decreased to 50% of the response in the absence of anti-MAdCAM antibody.” left out

T2 sequence (chain, as listed by the source limits assumed): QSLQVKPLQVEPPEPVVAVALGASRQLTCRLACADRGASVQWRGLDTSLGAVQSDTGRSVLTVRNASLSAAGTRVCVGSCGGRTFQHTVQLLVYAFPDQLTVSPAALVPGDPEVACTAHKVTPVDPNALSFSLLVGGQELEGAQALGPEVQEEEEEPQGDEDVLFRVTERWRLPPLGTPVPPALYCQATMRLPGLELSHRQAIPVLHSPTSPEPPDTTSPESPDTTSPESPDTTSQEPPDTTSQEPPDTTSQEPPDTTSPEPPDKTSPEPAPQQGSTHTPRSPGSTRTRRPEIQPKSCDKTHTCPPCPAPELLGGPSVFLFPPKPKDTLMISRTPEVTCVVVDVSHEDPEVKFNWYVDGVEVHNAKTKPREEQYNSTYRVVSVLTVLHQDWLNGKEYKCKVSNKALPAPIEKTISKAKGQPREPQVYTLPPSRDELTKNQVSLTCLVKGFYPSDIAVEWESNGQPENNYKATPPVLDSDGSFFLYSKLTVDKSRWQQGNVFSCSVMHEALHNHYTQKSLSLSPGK
Sequence of Fibronectin cell binding fragment (110 Kd, Europa Bioproducts Ltd, Cat. No. UBF4215-18) (P02751 other isoform, or with tags, fused parts or gaps limits assumed): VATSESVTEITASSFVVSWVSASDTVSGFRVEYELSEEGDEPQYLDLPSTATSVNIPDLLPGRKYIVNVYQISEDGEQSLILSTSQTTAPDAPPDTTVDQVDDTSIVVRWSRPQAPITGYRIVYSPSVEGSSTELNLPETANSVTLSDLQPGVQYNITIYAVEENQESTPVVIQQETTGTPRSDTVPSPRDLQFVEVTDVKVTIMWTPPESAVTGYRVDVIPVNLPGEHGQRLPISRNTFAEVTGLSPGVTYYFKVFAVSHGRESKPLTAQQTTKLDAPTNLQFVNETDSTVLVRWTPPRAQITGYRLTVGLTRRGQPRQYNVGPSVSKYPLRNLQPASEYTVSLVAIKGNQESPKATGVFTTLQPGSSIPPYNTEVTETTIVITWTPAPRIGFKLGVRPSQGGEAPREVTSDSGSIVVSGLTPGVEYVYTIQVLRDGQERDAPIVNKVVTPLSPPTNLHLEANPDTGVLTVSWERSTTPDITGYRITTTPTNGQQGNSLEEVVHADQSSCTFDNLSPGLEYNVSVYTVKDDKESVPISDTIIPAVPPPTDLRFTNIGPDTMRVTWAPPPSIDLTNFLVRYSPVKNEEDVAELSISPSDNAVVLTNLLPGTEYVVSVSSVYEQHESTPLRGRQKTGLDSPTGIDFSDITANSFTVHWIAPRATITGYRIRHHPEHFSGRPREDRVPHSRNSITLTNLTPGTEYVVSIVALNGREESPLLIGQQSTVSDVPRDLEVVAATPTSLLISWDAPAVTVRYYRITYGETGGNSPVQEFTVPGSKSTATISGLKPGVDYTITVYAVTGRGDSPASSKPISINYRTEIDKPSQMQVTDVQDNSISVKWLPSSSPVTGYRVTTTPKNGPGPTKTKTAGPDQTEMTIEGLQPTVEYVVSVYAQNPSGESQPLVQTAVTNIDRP

inhibition of adhesion of α4β1+/α5β1+ Jurkat T-cells to coated VCAM (VCAM (Panvera)) [fold]	inhibition of adhesion of α4β1+/α5β1+ Jurkat T-cells to coated Fibronectin cell binding fragment [1] [fold]	IC50 [2] [µg/mL]	IC50 [3] [µg/mL]	Binder
> 100	> 100			B1
> 100	> 100			B2
> 100	> 100			B3
> 100	> 100	0.018		B4
		0.058		B5
> 100	> 100	0.013		B6
		0.049		B7
		0.033		B8
> 100	> 100			B9
		0.077		B10
> 100	> 100			B11
> 100	> 100	0.013		B12
		0.037		B13
> 100	> 100		< 0.1	B14
> 100	> 100			B15
